How the values were obtained:
[1] = target: T1, bovine CYP11A1, wild type, mature, residues 41-520 (bovine, UniProt P00189 41-520); experiment: cell-based or functional assay
T1 sequence (looked up): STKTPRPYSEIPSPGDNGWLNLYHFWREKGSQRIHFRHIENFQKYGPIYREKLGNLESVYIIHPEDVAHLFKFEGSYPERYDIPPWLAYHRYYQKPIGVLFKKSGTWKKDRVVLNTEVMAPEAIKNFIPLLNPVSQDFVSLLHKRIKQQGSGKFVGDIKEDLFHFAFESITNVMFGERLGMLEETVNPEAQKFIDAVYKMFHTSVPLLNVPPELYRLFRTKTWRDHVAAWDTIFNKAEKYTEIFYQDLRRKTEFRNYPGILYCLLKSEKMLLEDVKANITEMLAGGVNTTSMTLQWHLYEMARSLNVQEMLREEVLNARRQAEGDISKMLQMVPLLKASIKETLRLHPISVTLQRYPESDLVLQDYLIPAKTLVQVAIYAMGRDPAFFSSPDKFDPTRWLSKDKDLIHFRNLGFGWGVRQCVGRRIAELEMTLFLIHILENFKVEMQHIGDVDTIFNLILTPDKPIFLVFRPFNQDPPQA

[2] = target: T1, bovine CYP11A1, wild type, mature, …; experiment: NMR titration; 2D 1H,15N-HSQC of 50 uM 15N-Adx with 0.25 to 1.0 equivalents of CYP11A1; 50 mM potassium phosphate, 50 mM NaCl, pH 7.2; peak intensity ratios; some samples with cholesterol or vitamin D3 in 25% HPCD added to the pre-formed complex; details: both partners purified

B1: bovine Adrenodoxin M77L (natural protein)
chain: SSSEDKITVHFINRDGETLTTKGKIGDSLLDVVVQNNLDIDGFGACEGTLACSTCHLIFEQHIFEKLEAITDEENDLLDLAYGLTDRSRLGCQICLTKAMDNMTVRVPDAVSDARESIDMGMNSSKIE
modifications: uniform 15N labelling in the NMR samples
reconstituted CYP11A1 assay, side chain cleavage of cholesterol: pregnenolone produced with Adx M77L compared to WT Adx, at 45 min [1]: 0.6 fold (decrease relative to WT Adx) | reconstituted CYP11A1 assay: vitamin D3 depletion with Adx M77L compared to WT Adx, at 45 min [1]: 0.7 fold (decrease relative to WT Adx)

B2: bovine Adrenodoxin, wild type (15N-labeled for NMR) (natural protein)
chain: SSSEDKITVHFINRDGETLTTKGKIGDSLLDVVVQNNLDIDGFGACEGTLACSTCHLIFEQHIFEKLEAITDEENDMLDLAYGLTDRSRLGCQICLTKAMDNMTVRVPDAVSDARESIDMGMNSSKIE
modifications: uniform 15N labelling in the NMR samples
notes: Adrenodoxin (Adx), bovine; Carries a 2Fe-2S cluster; also called Adx; WT Adx; source: Ni-NTA, then size exclusion chromatography (Superdex 75)
binding result [2]: binds

B3: bovine Adrenodoxin M77S (natural protein)
chain: SSSEDKITVHFINRDGETLTTKGKIGDSLLDVVVQNNLDIDGFGACEGTLACSTCHLIFEQHIFEKLEAITDEENDSLDLAYGLTDRSRLGCQICLTKAMDNMTVRVPDAVSDARESIDMGMNSSKIE
modifications: uniform 15N labelling in the NMR samples
reconstituted CYP11A1 assay: vitamin D3 metabolism with Adx M77S compared to WT Adx, at 45 min [1]: ~0.3 fold (increase relative to WT Adx)
